Patent US20240115722A1 (RUTGERS THE STATE UNIVERSITY OF NEW JERSEY, published 2024)
Where two headings read alike, the source gives them in different places.

Columns and labels:
[1] = biological target: T1, recombinant human EphA5 (rhEphA5) antigen (human, UniProt P54756 25-573); assay: SPR single-cycle kinetics (Biacore T200), IgG from HEK supernatant captured on anti-human IgG CM5 chip, rhEphA5 as analyte, 1:1 fit; set-up: Relative KD: reference not given here
T1 construct: also called human EphA5 (R and D systems, Cat. No. 3036-A5); recombinant EphA5
T1 sequence (P54756 25-573 limits assumed): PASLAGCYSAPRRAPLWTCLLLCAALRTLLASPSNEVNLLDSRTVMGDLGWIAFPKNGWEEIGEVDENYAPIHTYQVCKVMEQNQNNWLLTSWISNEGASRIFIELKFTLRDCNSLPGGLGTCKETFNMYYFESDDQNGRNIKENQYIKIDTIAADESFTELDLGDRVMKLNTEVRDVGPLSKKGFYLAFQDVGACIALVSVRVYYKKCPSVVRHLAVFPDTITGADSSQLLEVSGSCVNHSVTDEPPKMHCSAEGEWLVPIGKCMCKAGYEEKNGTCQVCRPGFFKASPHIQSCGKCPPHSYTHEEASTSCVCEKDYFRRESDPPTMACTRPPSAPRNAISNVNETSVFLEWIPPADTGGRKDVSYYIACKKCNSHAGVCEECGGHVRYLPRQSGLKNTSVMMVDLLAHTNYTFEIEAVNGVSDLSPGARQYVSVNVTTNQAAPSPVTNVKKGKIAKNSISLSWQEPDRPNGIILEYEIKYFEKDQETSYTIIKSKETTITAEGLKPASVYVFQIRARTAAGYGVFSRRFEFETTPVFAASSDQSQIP
Description: Kinetic analysis was carried out on a Biacore T200. Each antibody was captured on a CM5 chip coupled with an anti-human IgG using standard amine chemistry before increasing concentrations of antigen were injected and a single off-rate was determined.
Kinetic experiments were performed at 25° C. on a Biacore T200 running Biacore T200 Control software V2.0.1 and Evaluation software V3.0 (Cytiva, Uppsala, Sweden).
HBS-P+ (Cytiva, Uppsala, Sweden), supplemented with 1% BSA (Sigma, Dorset, UK) was used as running buffer as well as for ligand and analyte dilutions. Supernatants containing IgG were diluted in running buffer to 1 μg/mL. At the start of each cycle, antibodies were loaded onto Fc2, Fc3 and Fc4 of an anti-human IgG CM5 sensor chip (Cytiva, Little Chalfont, UK). Ig were captured at a flow rate of […] to give an immobilization level (RL) of ˜60 RU. The surface was then allowed to stabilize.

[2] = biological target: T1, recombinant human EphA5 (rhEphA5) …; assay: SPR multi-cycle kinetics (Biacore T200), purified IgG captured on anti-human IgG CM5 chip, recombinant EphA5 as analyte, 1:1 fit
Description: HBS-P+(GE Healthcare, Uppsala, Sweden), supplemented with 1% BSA w/v (Sigma, Dorset, UK) was used as running buffer as well as for ligand and analyte dilutions. Purified lead antibodies were diluted to 0.5 μg/mL in running buffer and at the start of each cycle, loaded onto Fc2, Fc3 and Fc4 of an anti-human IgG CM5 sensor chip (GE Healthcare, Little Chalfont, UK). […] The surface was then allowed to stabilize.
Multi-cycle kinetic data was obtained using recombinant EphA5 as the analytes injected at a flow rate of 30 μl/min to minimize any potential mass transfer effects. […] For each concentration, the association phases were monitored for 210 seconds and the dissociation phase was measured for 900 seconds. Regeneration of the sensor chip surface was conducted between cycles using two injections of 3 M MgCl2. Multiple repeats of a blank and of EphA5 were programmed into the kinetic run in order to check the stability of both the surface and analyte over the kinetic cycles.
The signal from the reference channel Fc1 (no IgG captured) was subtracted from that of Fc2, Fc3 and Fc4 to correct for bulk effect and differences in non-specific binding to a reference surface. The signal from each IgG blank run (IgG captured but no antigen) was subtracted to correct for differences in surface stability. The double referenced sensorgrams were fitted with the Langmuir (1:1) binding model where the closeness of fit of the data to the model is evaluated using the Chi square value which describes the deviation between the experimental and fitted (observed and expected) curves. The fitting algorithm seeks to minimize the Chi square value.

[3] = biological target: T2, human EPH receptor A5 (EphA5) expressed on cells (human, UniProt P54756 25-1037); assay: flow cytometry on H460 (EphA5+) cells, starting assay concentration 10 µg/mL
T2 construct: Cell line (H460 stably expressing EphA5; HEK-293T transfected with EPHA5 clone or wild-type construct; lung cancer lines with endogenous or variable expression); also called cell-surface EphA5; wild-type target protein
T2 sequence (P54756 25-1037 limits assumed): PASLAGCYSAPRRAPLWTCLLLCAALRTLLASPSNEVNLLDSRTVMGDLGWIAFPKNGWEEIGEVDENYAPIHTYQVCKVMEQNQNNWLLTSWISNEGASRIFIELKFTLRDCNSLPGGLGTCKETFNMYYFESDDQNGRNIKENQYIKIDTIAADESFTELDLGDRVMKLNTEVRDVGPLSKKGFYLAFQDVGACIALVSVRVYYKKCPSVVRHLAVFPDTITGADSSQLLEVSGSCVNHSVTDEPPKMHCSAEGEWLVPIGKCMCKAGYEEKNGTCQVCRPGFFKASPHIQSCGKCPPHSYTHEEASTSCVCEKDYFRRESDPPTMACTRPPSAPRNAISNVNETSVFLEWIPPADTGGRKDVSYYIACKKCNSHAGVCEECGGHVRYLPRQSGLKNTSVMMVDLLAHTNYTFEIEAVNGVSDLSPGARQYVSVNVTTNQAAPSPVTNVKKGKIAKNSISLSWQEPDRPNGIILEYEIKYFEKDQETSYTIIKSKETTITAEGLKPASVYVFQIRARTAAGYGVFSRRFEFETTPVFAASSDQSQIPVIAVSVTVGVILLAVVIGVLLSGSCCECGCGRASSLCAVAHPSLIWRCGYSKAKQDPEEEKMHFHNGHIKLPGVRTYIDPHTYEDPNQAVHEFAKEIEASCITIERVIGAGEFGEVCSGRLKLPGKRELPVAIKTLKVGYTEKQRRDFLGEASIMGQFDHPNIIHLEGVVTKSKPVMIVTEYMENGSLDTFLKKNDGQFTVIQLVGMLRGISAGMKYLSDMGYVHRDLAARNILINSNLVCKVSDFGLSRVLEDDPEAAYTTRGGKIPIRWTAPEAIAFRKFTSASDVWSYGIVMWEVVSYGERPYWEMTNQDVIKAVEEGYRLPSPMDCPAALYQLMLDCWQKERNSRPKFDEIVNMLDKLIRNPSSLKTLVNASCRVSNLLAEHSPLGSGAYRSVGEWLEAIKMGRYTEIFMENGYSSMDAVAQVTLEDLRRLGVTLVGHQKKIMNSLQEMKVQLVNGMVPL
Description: Samples were prepared at a starting concentration of 10 μg/ml in FACS buffer and underwent a four-fold seven point serial dilution for testing with H460 cells and a three-fold three point serial dilution for the H226 cells. Cell pellets were resuspended in 100 μl of the serially diluted samples and incubated at 4° C. for 30 minutes. After the incubation, cells were pelleted, washed twice with 100 μl of FACS buffer and resuspended in either Alexa Fluor 647 anti-mouse or anti-human (Thermo Fisher) diluted to 5 μg/ml in FACS buffer. After incubation at 4° C. for 30 minutes, cells were pelleted, washed twice with 100 μl of FACS buffer and resuspended in 200 μl per well 1×BD CellFix solution (BD Pharmingen, Berkshire, UK). Median fluorescence intensity (MFI) was measured using an Attune NxT Flow Cytometer (Thermo Fisher, Loughborough, UK) and 10,000 gated events were acquired per sample. For data analysis, live cell populations were gated based on the forward and side scatter dot plot allowing the Alexa Fluor 647 MFI values to be measured in the RL1 channel.

FCGR1A [4] = biological target: T3, FCGR1A (human, UniProt P12314); assay: Membrane Proteome Array screen, human membrane protein clones expressed in cells, flow cytometry (Table E4: HEK-293T, antibody 20 µg/ml)
T3 construct: clone overexpressed in live cells from an expression plasmid; Labelled point above the threshold in the Membrane Proteome Array plots of both H4K3 and H5K3
T3 sequence (P12314 16-374 limits assumed): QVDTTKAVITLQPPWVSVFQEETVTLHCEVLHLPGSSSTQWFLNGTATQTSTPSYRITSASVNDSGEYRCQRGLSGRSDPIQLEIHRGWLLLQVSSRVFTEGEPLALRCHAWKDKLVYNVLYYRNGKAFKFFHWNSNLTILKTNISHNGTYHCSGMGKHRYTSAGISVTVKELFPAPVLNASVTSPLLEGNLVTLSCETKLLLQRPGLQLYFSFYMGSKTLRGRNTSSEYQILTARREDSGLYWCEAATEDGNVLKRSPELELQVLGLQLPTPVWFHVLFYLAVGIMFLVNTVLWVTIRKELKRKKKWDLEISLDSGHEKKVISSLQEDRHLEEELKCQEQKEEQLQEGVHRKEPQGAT

FCGR1A [5] = biological target: T3, FCGR1A; assay: as above; remark: listed apart in the source
[6] = biological target: T1, recombinant human EphA5 (rhEphA5) …; assay: SPR (Biacore T200), IgG captured on anti-human IgG chip, rhEphA5 as analyte, 1:1 fit; table does not say single- or multi-cycle
[7] = biological target: T2, human EPH receptor A5 (EphA5) expressed …; assay: flow cytometry on H460 (EphA5+) cells, goat anti-mouse Alexa Fluor 647 detection

| Binder | Kd [1] | Relative KD [1] | koff [1] | Kd [2] | Relative KD [2] | koff [2] | EC50 [3] | Max. Binding (MFI) [3] | binding result (FCGR1A [4]) | binding result (FCGR1A [5]) | Kd [6] | koff [6] | kon [6] | EC50 (read off the curve) [7] |
| --- | --- | --- | --- | --- | --- | --- | --- | --- | --- | --- | --- | --- | --- | --- |
| VH3/VK4 humanized 11C12 antibody (antibody, human IgG1, kappa, Human IgG1/kappa; lead variant, tested as HEK supernatant and as protein purified from CHO; also called H3K4) heavy: not shown light: DIVMTQSPDSLAVSLGERATINCKSSQSVDYDGDSYMNWYQQKPGKAPKLLIYGASNLESGIPDRFSGSGSGTDFTLTISRLEPEDAASYYCQQSNEDPFTFGQGTKLEIKRTVAAPSVFIFPPSDEQLKSGTASVVCLLNNFYPREAKVQWKVDNALQSGNSQESVTEQDSKDSTYSLSSTLTLSKADYEKHKVYACEVTHQGLSSPVTKSFNRGEC | 0.956 nM | 0.72 | 0.00128 s⁻¹ | 1.08 nM | 0.69 | 0.00142 s⁻¹ | 0.018 µg/mL | 36500 MFI | – | – | – | – | – | – |
| VH4/VK3 humanized 11C12 antibody (antibody, human IgG1, kappa, Human IgG1/kappa; lead variant, tested as HEK supernatant and as purified protein; also called H4K3; EPHA5 H4K3) heavy: not shown light: DIVMTQSPDSLAVSLGERATINCKASQSVDYDGDSYMNWYQQKPGKAPKLLIYGASNLESGIPDRFSGSGSGTDFTLTISRLEPEDAAVYYCQQSNEDPFTFGQGTKLEIKRTVAAPSVFIFPPSDEQLKSGTASVVCLLNNFYPREAKVQWKVDNALQSGNSQESVTEQDSKDSTYSLSSTLTLSKADYEKHKVYACEVTHQGLSSPVTKSFNRGEC | 1.04 nM | 0.78 | 0.00137 s⁻¹ | 0.937 nM | 0.6 | 0.00139 s⁻¹ | 0.018 µg/mL | 36700 MFI | binds | – | – | – | – | – |
| VH5/VK2 humanized 11C12 antibody (antibody, human IgG1, kappa, V domains shown, Human IgG1/kappa; lead variant, tested as HEK supernatant and as protein purified from CHO; also called H5K2) VH: EVQLVESGGGLVQPGGSLKLSCAASGFTFSTFGIHWVRQAPGKGLEWVAYISGASTTIYYADSVKGRFTISRDNSKNTLYLQMNSLRAEDTAVYYCARYGTSFPYGLDYWGQGTLVTVSS VL: DIVMTQSPDSLAVSLGERATINCKASQSVDYDGDSYMNWYQQKPGKAPKLLIYGASNLESGIPDRFSGSGSGTDFTLTISRLEPEDAASYYCQQSNEDPFTFGQGTKLEIKR | 0.892 nM | 0.67 | 0.00123 s⁻¹ | 0.934 nM | 0.6 | 0.00125 s⁻¹ | 0.017 µg/mL | 36900 MFI | – | – | – | – | – | – |
| VH5/VK3 humanized 11C12 antibody (antibody, human IgG1, kappa, Human IgG1/kappa; lead variant, tested as HEK supernatant and as purified protein; also called H5K3; EPHA5 H5K3) heavy: not shown light: DIVMTQSPDSLAVSLGERATINCKASQSVDYDGDSYMNWYQQKPGKAPKLLIYGASNLESGIPDRFSGSGSGTDFTLTISRLEPEDAAVYYCQQSNEDPFTFGQGTKLEIKRTVAAPSVFIFPPSDEQLKSGTASVVCLLNNFYPREAKVQWKVDNALQSGNSQESVTEQDSKDSTYSLSSTLTLSKADYEKHKVYACEVTHQGLSSPVTKSFNRGEC | 1.03 nM | 0.77 | 0.0014 s⁻¹ | – | – | – | 0.019 µg/mL | 36500 MFI | – | binds | 1.11 nM | 0.00135 s⁻¹ | 1.21e+06 M⁻¹ s⁻¹ | – |
| VH5/VK4 humanized 11C12 antibody (antibody, human IgG1, kappa, V domains shown, Human IgG1/kappa; lead variant, tested as HEK supernatant and as protein purified from CHO; also called H5K4) VH: EVQLVESGGGLVQPGGSLKLSCAASGFTFSTFGIHWVRQAPGKGLEWVAYISGASTTIYYADSVKGRFTISRDNSKNTLYLQMNSLRAEDTAVYYCARYGTSFPYGLDYWGQGTLVTVSS VL: DIVMTQSPDSLAVSLGERATINCKSSQSVDYDGDSYMNWYQQKPGKAPKLLIYGASNLESGIPDRFSGSGSGTDFTLTISRLEPEDAASYYCQQSNEDPFTFGQGTKLEIKR | 1.04 nM | 0.78 | 0.00141 s⁻¹ | 1.04 nM | 0.67 | 0.00128 s⁻¹ | 0.018 µg/mL | 35900 MFI | – | – | – | – | – | – |
| VH4/VK4 humanized 11C12 antibody (antibody, human IgG1, kappa, V domains shown, Human IgG1/kappa; lead variant, tested as HEK supernatant and as protein purified from CHO; also called H4K4) VH: EVQLVESGGGLVQPGGSLKLSCAASGFTFSTFGIHWVRQAPGKGLEWVAYISGASTTIYYADTVKGRFTISRDNSKNTLYLQMNSLRAEDTAVYYCARYGTSFPYGLDYWGQGTLVTVSS VL: DIVMTQSPDSLAVSLGERATINCKSSQSVDYDGDSYMNWYQQKPGKAPKLLIYGASNLESGIPDRFSGSGSGTDFTLTISRLEPEDAASYYCQQSNEDPFTFGQGTKLEIKR | 1.05 nM | 0.79 | 0.0014 s⁻¹ | 1.04 nM | 0.67 | 0.00132 s⁻¹ | 0.017 µg/mL | 37500 MFI | – | – | – | – | – | – |
| anti-human EphA5 monoclonal murine antibody 11C12 (antibody, V domains shown, Full murine antibody; also called murine 11C12; mouse 11C12) VH: EVTLKESGGGLVQPGGSRKLSCAASGFTFSTFGIHWVRQAPEKGLEWVAYISGASTTIYYADTVKGRFTISRDNPKNTLFLQMTSLRSEDTAMYYCARYGTSFPYGLDYWGQGTSVTVSS VL: DIVMTQSPGSLAVSLGQRATISCKASQSVDYDGDSYMNWYQQKPGQPPKLLIYGASNLESGIPARFSGSGSGTDFTLNIHPVEEEDAASYYCQQSNEDPFTFGSGTKLEIK | – | – | – | – | – | – | 0.025 µg/mL | 27300 MFI | – | – | – | – | – | ~0.05 µg/mL |
| chimeric VH0/VK0 antibody (murine 11C12 variable regions, human IgG1/kappa constant regions) (antibody, V domains shown, also called chimeric antibody) VH: EVTLKESGGGLVQPGGSRKLSCAASGFTFSTFGIHWVRQAPEKGLEWVAYISGASTTIYYADTVKGRFTISRDNPKNTLFLQMTSLRSEDTAMYYCARYGTSFPYGLDYWGQGTSVTVSS VL: DIVMTQSPGSLAVSLGQRATISCKASQSVDYDGDSYMNWYQQKPGQPPKLLIYGASNLESGIPARFSGSGSGTDFTLNIHPVEEEDAASYYCQQSNEDPFTFGSGTKLEIKR | 1.33 nM | 1 | 0.00153 s⁻¹ | – | – | – | 0.015 µg/mL | 35400 MFI | – | – | 1.56 nM | 0.0015 s⁻¹ | 965000 M⁻¹ s⁻¹ | – |
